# From patent US20040253689A1
# Key:
# Test in all cases: cell-based or functional assay
# [1] = target: 6m-hIGFBP-3 (I56A, Y57A, R75A, L77A, L80A, L81A mutant CHO-hIGFBP-3) (human) (UniProt P17936)
# [2] = target: recombinant hIGFBP-3 standard (R&D Systems; synthesized in NSO mouse myeloma cells) (human) (UniProt P17936)
# [3] = target: wild-type CHO-hIGFBP-3 (6xHis/Xpress/enterokinase-tagged mature human IGFBP-3 expressed in CHO-K1 cells from pRSV-Sec-BP3) (human) (UniProt P17936)
# Chain of wild-type CHO-hIGFBP-3 (6xHis/Xpress/enterokinase-tagged mature human IGFBP-3 expressed in CHO-K1 cells from pRSV-Sec-BP3) (human) (P17936 other isoform, or with tags, fused parts or gaps limits assumed): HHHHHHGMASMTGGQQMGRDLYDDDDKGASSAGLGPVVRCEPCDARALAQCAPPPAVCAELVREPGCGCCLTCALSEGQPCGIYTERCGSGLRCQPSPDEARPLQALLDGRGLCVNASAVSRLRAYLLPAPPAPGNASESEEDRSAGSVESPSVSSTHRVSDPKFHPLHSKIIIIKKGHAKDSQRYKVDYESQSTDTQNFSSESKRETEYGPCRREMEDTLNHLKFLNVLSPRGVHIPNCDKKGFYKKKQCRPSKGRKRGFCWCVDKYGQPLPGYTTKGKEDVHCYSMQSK
# Chain of recombinant hIGFBP-3 standard (R&D Systems; synthesized in NSO mouse myeloma cells) (human) (P17936 28-291 limits assumed): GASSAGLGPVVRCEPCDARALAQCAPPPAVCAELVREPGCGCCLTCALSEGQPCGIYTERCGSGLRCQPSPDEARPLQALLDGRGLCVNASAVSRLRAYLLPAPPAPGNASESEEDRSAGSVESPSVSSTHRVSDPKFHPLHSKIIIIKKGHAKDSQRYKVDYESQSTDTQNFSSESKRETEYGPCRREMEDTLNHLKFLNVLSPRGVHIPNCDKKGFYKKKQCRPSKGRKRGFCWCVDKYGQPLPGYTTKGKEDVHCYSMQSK
# Chain of 6m-hIGFBP-3 (I56A, Y57A, R75A, L77A, L80A, L81A mutant CHO-hIGFBP-3) (human) (P17936 other isoform, or with tags, fused parts or gaps I56A Y57A R75A L77A L80A L81A I56A Y57A R75A L77A L80A L81A): as the sequence (P17936 other isoform, or with tags, fused parts or gaps limits assumed) above, with I83A, Y84A, R102A, L104A, L107A, L108A counted along it
substance,measurement,setting,value
Leu^60-IGF-I (IGF-I analogue in which leucine is substituted for tyrosine at position 60; expressed in Escherichia coli) (from UniProt P05019 49-118) (ligand),"percentage of floating PC-3 cells that were dead, with Leu^60-IGF-I",[1],80%
same,"percentage of floating PC-3 cells that were dead, without Leu^60-IGF-I",[1],86%
same,"percentage of floating PC-3 cells that were dead, with Leu^60-IGF-I",[2],14%
same,"percentage of floating PC-3 cells that were dead, without Leu^60-IGF-I",[2],82%
same,"percentage of floating PC-3 cells that were dead, with Leu^60-IGF-I",[3],14%
same,"percentage of floating PC-3 cells that were dead, without Leu^60-IGF-I",[3],82%
